Target: RsPGs (polygalacturonases from Rhizoctonia solani) (Rhizoctonia solani)

## OsPGIP2^L233F, recombinant His-tagged (natural protein)
  reduction of RsPG activity, reduced sugar assay (polygalacturonic acid, 50 mM sodium citrate pH 5.0, 37 °C, 1 h): 40.6%

Reference: paper PMC6663954
